From patent US20250215101A1, “DR5 Agonist and PLK1 Inhibitor or CDK Inhibitor Combination Therapy” (Inhibrx Biosciences, Inc., priority 2022, published 2025)

Tests used:
Test in all cases: Cytotoxicity assay, colorectal cancer cell line panel, onvansertib +/- 1 nM INBRX-109
Type in all cases: cell-based
[1] = tested on: COLO320DM; settings: 1 nM INBRX-109 only
Method: (§1) Monolayer cultures of each cell line were harvested for compound screening as detailed below.
(§2) Also on day 2, test and control articles were added.
(§3) On day 4, viability measurements were taken. […] Data was graphed in GraphPad Prism 9.
(§4) The results for a panel of colorectal cancer cell lines are shown in Table 3 and FIGS. 4-6, and the results for a panel of pancreatic cell lines are shown in Table 4 and FIGS. 7 and 8.

[2] = tested on: DLD-1; settings: DLD-1; 1 nM INBRX-109 only
Method: as §1, §2, §3, §4

[3] = tested on: HCT 116; settings: HCT 116; 1 nM INBRX-109 only
Method: as §1, §2, §3, §4

[4] = tested on: HCT-15; settings: HCT-15; 1 nM INBRX-109 only
Method: as §1, §2, §3, §4

[5] = tested on: HCT-8; settings: HCT-8; 1 nM INBRX-109 only
Method: as §1, §2, §3, §4

[6] = tested on: HT-29; settings: HT-29; 1 nM INBRX-109 only
Method: as §1, §2, §3, §4

[7] = tested on: HT-55; settings: HT-55; 1 nM INBRX-109 only
Method: as §1, §2, §3, §4

[8] = tested on: Hutu 80; settings: Hutu 80; 1 nM INBRX-109 only
Method: as §1, §2, §3, §4

[9] = tested on: LS 1034; settings: LS 1034; 1 nM INBRX-109 only
Method: as §1, §2, §3, §4

[10] = tested on: LS 123; settings: LS 123; 1 nM INBRX-109 only
Method: as §1, §2, §3, §4

[11] = tested on: LS 180; settings: LS 180; 1 nM INBRX-109 only
Method: as §1, §2, §3, §4

[12] = tested on: LS 513; settings: LS 513; 1 nM INBRX-109 only
Method: as §1, §2, §3, §4

[13] = tested on: LS174T; settings: 1 nM INBRX-109 only
Method: as §1, §2, §3, §4

[14] = tested on: LoVo; settings: 1 nM INBRX-109 only
Method: as §1, §2, §3, §4

[15] = tested on: NCI-H716; settings: NCI-H716; 1 nM INBRX-109 only
Method: as §1, §2, §3, §4

[16] = tested on: NCI-H747; settings: NCI-H747; 1 nM INBRX-109 only
Method: as §1, §2, §3, §4

[17] = tested on: RKO; settings: 1 nM INBRX-109 only
Method: as §1, §2, §3, §4

[18] = tested on: SK-CO-1; settings: SK-CO-1; 1 nM INBRX-109 only
Method: as §1, §2, §3, §4

[19] = tested on: SNU-81; settings: 1 nM INBRX-109 only
Method: as §1, §2, §3, §4

[20] = tested on: SNU-C2A; settings: 1 nM INBRX-109 only
Method: as §1, §2, §3, §4

[21] = tested on: SNU-C5; settings: 1 nM INBRX-109 only
Method: as §1, §2, §3, §4

[22] = tested on: SW-1116; settings: SW-1116; 1 nM INBRX-109 only
Method: as §1, §2, §3, §4

[23] = tested on: SW-1463; settings: SW-1463; 1 nM INBRX-109 only
Method: as §1, §2, §3, §4

[24] = tested on: SW-403; settings: SW-403; 1 nM INBRX-109 only
Method: as §1, §2, §3, §4

[25] = tested on: SW-480; settings: SW-480; 1 nM INBRX-109 only
Method: as §1, §2, §3, §4

[26] = tested on: SW-48; settings: SW-48; 1 nM INBRX-109 only
Method: as §1, §2, §3, §4

[27] = tested on: SW-837; settings: SW-837; 1 nM INBRX-109 only
Method: as §1, §2, §3, §4

[28] = tested on: SW-948; settings: SW-948; 1 nM INBRX-109 only
Method: as §1, §2, §3, §4

[29] = tested on: SW620; settings: SW620; 1 nM INBRX-109 only
Method: as §1, §2, §3, §4

[30] = tested on: T84; settings: T84; 1 nM INBRX-109 only
Method: as §1, §2, §3, §4

B1: INBRX-109: DR5-binding polypeptide consisting of SEQ ID NO: 7 (two VHH domains and an Fc region); DR5 agonist (protein)
chain: EVQLLESGGGEVQPGGSLRLSCAASGLTFPNYGMGWFRQAPGKEREFVSAIYWSGGTVYYAESVKGRFTISRDNAKNTLYLQMSSLRAEDTAVYYCAVTIRGAATQTWKYDYWGQGTLVTVKPGGSGGSEVQLLESGGGEVQPGGSLRLSCAASGLTFPNYGMGWFRQAPGKEREFVSAIYWSGGTVYYAESVKGRFTISRDNAKNTLYLQMSSLRAEDTAVYYCAVTIRGAATQTWKYDYWGQGTLVTVKPGGGGDKTHTCPPCPAPGGPSVFLFPPKPKDTLMISRTPEVTCVVVDVSHEDPEVKFNWYVDGVEVHNAKTKPREEQYNSTYRVVSVLTVLHQDWLNGKEYKCKVSNKALPAPIEKTISKAKGQPREPQVYTLPPSRDELTKNQVSLTCLVKGFYPSDIAVEWESNGQPENNYKTTPPVLDSDGSFFLYSKLTVDKSRWQQGNVFSCSVMHEALHNHYTQKSLSLSPGK
modifications: INBRX-109
notes: DR5 agonist
Max Cytotox at 1 nM [1]: 4.7%
Max Cytotox at 1 nM [2]: 41.9%
Max Cytotox at 1 nM [3]: 54.4%
Max Cytotox at 1 nM [4]: 49.6%
Max Cytotox at 1 nM [5]: 6.7%
Max Cytotox at 1 nM [6]: 19.9%
Max Cytotox at 1 nM [7]: 48.4%
Max Cytotox at 1 nM [8]: 4.0%
Max Cytotox at 1 nM [9]: 56.9%
Max Cytotox at 1 nM [10]: 3.1%
Max Cytotox at 1 nM [11]: 27.2%
Max Cytotox at 1 nM [12]: 92.3%
Max Cytotox at 1 nM [13]: 41.2%
Max Cytotox at 1 nM [14]: 16.2%
Max Cytotox at 1 nM [15]: 9.2%
Max Cytotox at 1 nM [16]: 13.4%
Max Cytotox at 1 nM [17]: 3.6%
Max Cytotox at 1 nM [18]: 92.2%
Max Cytotox at 1 nM [19]: 82.1%
Max Cytotox at 1 nM [20]: 41.4%
Max Cytotox at 1 nM [21]: 48.6%
Max Cytotox at 1 nM [22]: 15.3%
Max Cytotox at 1 nM [23]: 28.5%
Max Cytotox at 1 nM [24]: 15.7%
Max Cytotox at 1 nM [25]: 19.7%
Max Cytotox at 1 nM [26]: 93.9%
Max Cytotox at 1 nM [27]: 7.1%
Max Cytotox at 1 nM [28]: 98.5%
Max Cytotox at 1 nM [29]: 19.4%
Max Cytotox at 1 nM [30]: 9.1%
